The values that follow come from article PMC4682653.

The subject of the data set is UvrY-His6 phosphorylated (UvrY-P) (Escherichia coli MG1655). Nature of the data set: EMSA. To be noted: in vitro phosphorylated; 20 mM Tris-HCl pH 7.5, 10% glycerol, 50 mM KCl, 3 mM MgCl2, 1 mM DTT, 100 ug/mL BSA, 0.5 nM DNA, 30 min at 37 C (Fig 3 legend: room temperature).

In the case of csrB EMSA probe (-246 to +49), the binding signal (fold affinity vs non-phosphorylated UvrY) was found to be 2.

In turn, csrC EMSA probe (-247 to +56) displayed a binding signal (fold affinity vs non-phosphorylated UvrY) of 2.
